{"source": "paper PMC2714593", "about": "“Insights into the role of Val45 and Gln182 of Escherichia coli MutY in DNA substrate binding and specificity”", "binders": {"B1": {"name": "T/G 44-mer (dsDNA)", "DNA 1": "AATTGGGCTCCTCGAGGAATTTGCCTTCTGCAGGCATGCCCCGG", "DNA 2": "CCGGGGCATGCCTGCAGAAGGCGAATTCCTCGAGGAGCCCAATT"}}, "molecular_target": "T1, MutY (EcMutY) wild type (Escherichia coli, UniProt P17802 1-350)", "T1 sequence": "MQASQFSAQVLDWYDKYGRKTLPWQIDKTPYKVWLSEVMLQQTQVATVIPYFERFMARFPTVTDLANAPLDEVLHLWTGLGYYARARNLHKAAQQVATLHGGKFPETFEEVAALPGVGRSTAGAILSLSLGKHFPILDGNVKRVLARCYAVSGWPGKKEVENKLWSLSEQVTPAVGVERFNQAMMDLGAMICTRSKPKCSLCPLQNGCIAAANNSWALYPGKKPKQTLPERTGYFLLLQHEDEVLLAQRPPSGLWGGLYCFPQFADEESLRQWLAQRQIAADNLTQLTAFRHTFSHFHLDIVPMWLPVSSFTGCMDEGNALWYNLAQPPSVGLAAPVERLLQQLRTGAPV", "assay": "EMSA; 20 mM Tris-HCl pH 7.6, 80 mM NaCl, 1 mM DTT, 1 mM EDTA, 2.9% glycerol, 20 ng poly dI/dC per 20 ul, 0.09 nM labeled DNA, 30 min at 30 C; 4% PAGE in TBE", "conditions": "protein: recombinant; label: 5'-32P on X strand; blunt; T/G mismatch at strand 1 position 22"}
{"binder": "B1", "values": [{"measurement": "Kd", "value": "14 ± 1", "unit": "nM"}]}
